# Reference: PMC11969024 (2025)
# B1: peptide HD2 (from tick evasin EVA4) / CCL17 (biotinylated, synthetic) (parent complex)
# chain 1: EEDDYTAYAPLTCYFT
# chain 2: ARGTNVGRECCLEYFKGAIPLRKLKTWYQTSEDCSRDAIVFVTVQGRAICSDPNNKRVKNAVKYLQSLERS
# Variants of: B1
row,Variant,enrichment
1,chain 1 VEDDYTAYAPLTCYFT [chain 1 E1V],-0.847 log2 (difference from the parental peptide)
2,chain 1 NEDDYTAYAPLTCYFT [chain 1 E1N],0.681 log2 (difference from the parental peptide)
3,chain 1 MEDDYTAYAPLTCYFT [chain 1 E1M],0.0225 log2 (difference from the parental peptide)
4,chain 1 LEDDYTAYAPLTCYFT [chain 1 E1L],-0.975 log2 (difference from the parental peptide)
5,chain 1 IEDDYTAYAPLTCYFT [chain 1 E1I],-0.523 log2 (difference from the parental peptide)
6,chain 1 AEDDYTAYAPLTCYFT [chain 1 E1A],0.0959 log2 (difference from the parental peptide)
7,chain 1 EEDMYTAYAPLTCYFT [chain 1 D4M],-3.6 log2 (difference from the parental peptide)
8,chain 1 EEDPYTAYAPLTCYFT [chain 1 D4P],-2.13 log2 (difference from the parental peptide)
9,chain 1 EEDNYTAYAPLTCYFT [chain 1 D4N],-3.02 log2 (difference from the parental peptide)
10,chain 1 EEDKYTAYAPLTCYFT [chain 1 D4K],-4.98 log2 (difference from the parental peptide)
11,chain 1 EEDVYTAYAPLTCYFT [chain 1 D4V],-7.15 log2 (difference from the parental peptide)
12,chain 1 EEDIYTAYAPLTCYFT [chain 1 D4I],-4.19 log2 (difference from the parental peptide)
13,chain 1 EEDFYTAYAPLTCYFT [chain 1 D4F],-6.96 log2 (difference from the parental peptide)
14,chain 1 EEDRYTAYAPLTCYFT [chain 1 D4R],-4.61 log2 (difference from the parental peptide)
15,chain 1 EEDSYTAYAPLTCYFT [chain 1 D4S],-4.05 log2 (difference from the parental peptide)
16,chain 1 EEDDYTGYAPLTCYFT [chain 1 A7G],2.15 log2 (difference from the parental peptide)
17,chain 1 EEDDYTNYAPLTCYFT [chain 1 A7N],2.1 log2 (difference from the parental peptide)
18,chain 1 EEDDYTSYAPLTCYFT [chain 1 A7S],0.977 log2 (difference from the parental peptide)
19,chain 1 EEDDYTFYAPLTCYFT [chain 1 A7F],-3.04 log2 (difference from the parental peptide)
20,chain 1 EEDDYTDYAPLTCYFT [chain 1 A7D],0.474 log2 (difference from the parental peptide)
21,chain 1 EEDDYTEYAPLTCYFT [chain 1 A7E],-0.527 log2 (difference from the parental peptide)
22,chain 1 EEDDYTMYAPLTCYFT [chain 1 A7M],1.3 log2 (difference from the parental peptide)
23,chain 1 EEDDYTAYAPLTCYVT [chain 1 F15V],1.08 log2 (difference from the parental peptide)

row,Variant,enrichment
1,chain 1 EEDDYTAYAPLTCYQT [chain 1 F15Q],-0.329 log2 (difference from the parental peptide)
2,chain 1 EEDDYTAYAPLTCYPT [chain 1 F15P],1.23 log2 (difference from the parental peptide)
3,chain 1 EEDDYTAYAPLTCYMT [chain 1 F15M],0.0931 log2 (difference from the parental peptide)
4,chain 1 EEDDYTAYAPLTCYTT [chain 1 F15T],0.347 log2 (difference from the parental peptide)
5,chain 1 EEDDYTAYAPLTCYAT [chain 1 F15A],0.597 log2 (difference from the parental peptide)
6,chain 1 EEDDYTAYAPLTCYNT [chain 1 F15N],-1.55 log2 (difference from the parental peptide)
7,chain 1 EEDDYTAYAPLTCYLT [chain 1 F15L],0.236 log2 (difference from the parental peptide)
8,chain 1 EEDDYTAYAPLTCYGT [chain 1 F15G],-3.49 log2 (difference from the parental peptide)
9,chain 1 EEDDYTAYAPLTCYHT [chain 1 F15H],0.105 log2 (difference from the parental peptide)
10,chain 1 EEDDYTAYAPLTCYYT [chain 1 F15Y],2.54 log2 (difference from the parental peptide)
11,chain 1 EEDDYTAYAPLTCYKT [chain 1 F15K],0.71 log2 (difference from the parental peptide)
12,chain 1 EEDDYTAYAPLTCTFT [chain 1 Y14T],-3.79 log2 (difference from the parental peptide)
13,chain 1 EEDDYTAYAPLTCLFT [chain 1 Y14L],-4.61 log2 (difference from the parental peptide)
14,chain 1 EEDDYTAYAPLTCCFT [chain 1 Y14C],-7.42 log2 (difference from the parental peptide)
15,chain 1 EEDDYTAYAPLTCYFM [chain 1 T16M],0.118 log2 (difference from the parental peptide)
16,chain 1 EEDDYTAYAPLTCYFC [chain 1 T16C],-5.46 log2 (difference from the parental peptide)
17,chain 1 EEDDYTAYAPLTCYFR [chain 1 T16R],-1.43 log2 (difference from the parental peptide)
18,chain 1 EEDDYTAYAPLTCYFA [chain 1 T16A],1.13 log2 (difference from the parental peptide)
19,chain 1 EEDDYTAYAPLTCYFP [chain 1 T16P],1.33 log2 (difference from the parental peptide)
20,chain 1 EEDDYTAYAPLTCYFG [chain 1 T16G],0.943 log2 (difference from the parental peptide)
21,chain 1 EEDDYTAYAPLTCYFS [chain 1 T16S],0.663 log2 (difference from the parental peptide)
22,chain 1 EEDDYTAYAPLTCYFV [chain 1 T16V],-0.108 log2 (difference from the parental peptide)
23,chain 1 EEDDYHAYAPLTCYFT [chain 1 T6H],0.317 log2 (difference from the parental peptide)

row,Variant,enrichment
1,chain 1 EEDDYRAYAPLTCYFT [chain 1 T6R],0.942 log2 (difference from the parental peptide)
2,chain 1 EEDDYAAYAPLTCYFT [chain 1 T6A],1.8 log2 (difference from the parental peptide)
3,chain 1 EEDDYLAYAPLTCYFT [chain 1 T6L],-1.57 log2 (difference from the parental peptide)
4,chain 1 EEDDYYAYAPLTCYFT [chain 1 T6Y],0.0769 log2 (difference from the parental peptide)
5,chain 1 EEDDYVAYAPLTCYFT [chain 1 T6V],-4.25 log2 (difference from the parental peptide)
6,chain 1 EEDDYTAYWPLTCYFT [chain 1 A9W],-4.5 log2 (difference from the parental peptide)
7,chain 1 EEDDYTAYGPLTCYFT [chain 1 A9G],-7.21 log2 (difference from the parental peptide)
8,chain 1 EEDDYTAYEPLTCYFT [chain 1 A9E],-1.38 log2 (difference from the parental peptide)
9,chain 1 EEDDYTAYVPLTCYFT [chain 1 A9V],-9.17 log2 (difference from the parental peptide)
10,chain 1 EEDDYTAYYPLTCYFT [chain 1 A9Y],-8.18 log2 (difference from the parental peptide)
11,chain 1 EEDDWTAYAPLTCYFT [chain 1 Y5W],0.266 log2 (difference from the parental peptide)
12,chain 1 EEDDMTAYAPLTCYFT [chain 1 Y5M],-3.16 log2 (difference from the parental peptide)
13,chain 1 EEDDGTAYAPLTCYFT [chain 1 Y5G],-7.21 log2 (difference from the parental peptide)
14,chain 1 EEDDFTAYAPLTCYFT [chain 1 Y5F],-2.8 log2 (difference from the parental peptide)
15,chain 1 EEDDITAYAPLTCYFT [chain 1 Y5I],-6.15 log2 (difference from the parental peptide)
16,chain 1 EEDDPTAYAPLTCYFT [chain 1 Y5P],-4.51 log2 (difference from the parental peptide)
17,chain 1 EEDDSTAYAPLTCYFT [chain 1 Y5S],-7.62 log2 (difference from the parental peptide)
18,chain 1 EETDYTAYAPLTCYFT [chain 1 D3T],-2.29 log2 (difference from the parental peptide)
19,chain 1 EEYDYTAYAPLTCYFT [chain 1 D3Y],-3.2 log2 (difference from the parental peptide)
20,chain 1 EEFDYTAYAPLTCYFT [chain 1 D3F],-5.06 log2 (difference from the parental peptide)
21,chain 1 EEHDYTAYAPLTCYFT [chain 1 D3H],-2.9 log2 (difference from the parental peptide)
22,chain 1 EEEDYTAYAPLTCYFT [chain 1 D3E],0.618 log2 (difference from the parental peptide)
23,chain 1 EELDYTAYAPLTCYFT [chain 1 D3L],-4.35 log2 (difference from the parental peptide)

row,Variant,enrichment
1,chain 1 EEADYTAYAPLTCYFT [chain 1 D3A],-2.38 log2 (difference from the parental peptide)
2,chain 1 EEDDYTAYAPLTSYFT [chain 1 C13S],-8.83 log2 (difference from the parental peptide)
3,chain 1 EEDDYTAYAPLTFYFT [chain 1 C13F],-5.92 log2 (difference from the parental peptide)
4,chain 1 EEDDYTAYAPLTQYFT [chain 1 C13Q],-6.89 log2 (difference from the parental peptide)
5,chain 1 EEDDYTAYAPLTNYFT [chain 1 C13N],-8.31 log2 (difference from the parental peptide)
6,chain 1 EEDDYTAYAPLTTYFT [chain 1 C13T],-5.42 log2 (difference from the parental peptide)
7,chain 1 EEDDYTAYAPLTMYFT [chain 1 C13M],-2.5 log2 (difference from the parental peptide)
8,chain 1 EEDDYTAYAPLTVYFT [chain 1 C13V],-2.69 log2 (difference from the parental peptide)
9,chain 1 EEDDYTAYAELTCYFT [chain 1 P10E],-6.42 log2 (difference from the parental peptide)
10,chain 1 EEDDYTAYAWLTCYFT [chain 1 P10W],-5.95 log2 (difference from the parental peptide)
11,chain 1 EEDDYTAYAALTCYFT [chain 1 P10A],-8.82 log2 (difference from the parental peptide)
12,chain 1 EEDDYTAYADLTCYFT [chain 1 P10D],-8.51 log2 (difference from the parental peptide)
13,chain 1 EEDDYTAYAGLTCYFT [chain 1 P10G],-9.32 log2 (difference from the parental peptide)
14,chain 1 EEDDYTAYAPLSCYFT [chain 1 T12S],-3.76 log2 (difference from the parental peptide)
15,chain 1 EEDDYTAYAPLGCYFT [chain 1 T12G],-10.4 log2 (difference from the parental peptide)
16,chain 1 EEDDYTAYAPLQCYFT [chain 1 T12Q],-1.6 log2 (difference from the parental peptide)
17,chain 1 EEDDYTAYAPLNCYFT [chain 1 T12N],-3.22 log2 (difference from the parental peptide)
18,chain 1 EEDDYTAYAPLICYFT [chain 1 T12I],0.0487 log2 (difference from the parental peptide)
19,chain 1 EEDDYTAYAPLKCYFT [chain 1 T12K],-2.78 log2 (difference from the parental peptide)
20,chain 1 EEDDYTAYAPLDCYFT [chain 1 T12D],-7.76 log2 (difference from the parental peptide)
21,chain 1 EEDDYTAYAPLMCYFT [chain 1 T12M],1.75 log2 (difference from the parental peptide)
22,chain 1 EEDDYTAYAPLYCYFT [chain 1 T12Y],-0.855 log2 (difference from the parental peptide)
23,chain 1 EEDDYTAYAPLPCYFT [chain 1 T12P],-4.02 log2 (difference from the parental peptide)

row,Variant,enrichment
1,chain 1 EEDDYTAYAPLHCYFT [chain 1 T12H],-2.06 log2 (difference from the parental peptide)
2,chain 1 EEDDYTAYAPWTCYFT [chain 1 L11W],-0.813 log2 (difference from the parental peptide)
3,chain 1 EEDDYTAYAPNTCYFT [chain 1 L11N],-6.23 log2 (difference from the parental peptide)
4,chain 1 EEDDYTAYAPATCYFT [chain 1 L11A],-1.12 log2 (difference from the parental peptide)
5,chain 1 EEDDYTAYAPKTCYFT [chain 1 L11K],2.96 log2 (difference from the parental peptide)
6,chain 1 EEDDYTAYAPDTCYFT [chain 1 L11D],-9.19 log2 (difference from the parental peptide)
7,chain 1 EEDDYTAYAPETCYFT [chain 1 L11E],-4.46 log2 (difference from the parental peptide)
8,chain 1 EDDDYTAYAPLTCYFT [chain 1 E2D],1.45 log2 (difference from the parental peptide)
9,chain 1 EMDDYTAYAPLTCYFT [chain 1 E2M],-1.82 log2 (difference from the parental peptide)
10,chain 1 ESDDYTAYAPLTCYFT [chain 1 E2S],-1.29 log2 (difference from the parental peptide)
11,chain 1 EHDDYTAYAPLTCYFT [chain 1 E2H],-1.27 log2 (difference from the parental peptide)
12,chain 1 ETDDYTAYAPLTCYFT [chain 1 E2T],-2.14 log2 (difference from the parental peptide)
13,chain 1 ENDDYTAYAPLTCYFT [chain 1 E2N],-1.61 log2 (difference from the parental peptide)
14,chain 1 EWDDYTAYAPLTCYFT [chain 1 E2W],-2.45 log2 (difference from the parental peptide)
15,chain 1 EEDDYTAFAPLTCYFT [chain 1 Y8F],0.399 log2 (difference from the parental peptide)
16,chain 1 EEDDYTAWAPLTCYFT [chain 1 Y8W],-3.5 log2 (difference from the parental peptide)
17,chain 1 EEDDYTAHAPLTCYFT [chain 1 Y8H],-5.35 log2 (difference from the parental peptide)
18,chain 1 EEDDYTAVAPLTCYFT [chain 1 Y8V],-8.87 log2 (difference from the parental peptide)
19,chain 1 EEDDYTACAPLTCYFT [chain 1 Y8C],-9.78 log2 (difference from the parental peptide)
20,chain 1 EEDDYTALAPLTCYFT [chain 1 Y8L],-8.14 log2 (difference from the parental peptide)
